{"source": "patent US12383572B2", "about": "“Administration of an anti-activin-a compound to a subject” (AMGEN INC., priority 2013, dated 2025)", "key": {"[1]": {"test_system": "testicular tumors in inh-KO mice", "assay": "Testicular tumor mass by necropsy in male inh-KO mice", "format": "in vivo, mouse", "settings": "8-week-old male inh-KO mice, single injection 30 mg/kg SC, necropsy 14 days after", "method": "Inh-KO mice. 12-week-old female and 8-week-old male inh-KO mice with fully established ovarian or testicular tumors received a single injection of PBS or sActRIIB (30 mg/kg, SC). As a control, age-matched wild-type littermates received a single injection of PBS. Ovarian and testicular organ weights were determined by necropsy 14 days after the injection."}, "E-cadherin": {"test_system": "E-cadherin", "assay": "E-cadherin Western blot and immunostaining in inh-KO ovarian tumors", "format": "in vivo, mouse", "settings": "inh-KO mice", "method": "(§1) Protein extracts were prepared from cell cultures or tissues in T-PER tissue protein extraction reagent (Pierce) containing a mixture of protease inhibitors (Roche). A pool of 50 μg total protein for each group containing equal amounts of protein extract isolated from individual animals was separated by NuPAGE 4-12% Bis-Tris gel (Invitrogen) and transferred to PVDF. The membranes were probed with primary antibodies against total Smad2, p-Smad2 or E-cadherin (1:1000; Cell Signaling), endoglin, osteopontin (1:500; R & D Systems), IGFBP-1, IGFBP-2 (1:500; Abcam) followed by HRP-conjugated secondary antibody (1:2000; Cell Signaling). The membranes were stripped and re-probed with antibody against α-tubulin (1:1000; Cell Signaling).\nZinc-formalin fixed paraffin tumor tissue sections of 4 μm in thickness were prepared. The sections were subjected to antigen retrieval by microwave 3 min in Unmask solution (Vector H-3300) followed by incubation in 10 μg/ml Proteinase-K for 20 min and in 1% H2O2 in dH2O for 10 min at room temperature. The sections were further incubated in 0.1% Tween-20 in PBS for 3 min to permeabilize the cell membrane and in goat serum for 30 min to block non-specific binding. […] The immunostained tissue sections were analyzed and photographed using a Nikon Eclipse 90i microscope equipped with DS-Ril camera. […]"}, "VEGF": {"test_system": "VEGF", "assay": "Serum VEGF immunoassay in inh-KO mice", "format": "in vivo, mouse", "settings": "inh-KO mice with advanced tumors, single dose", "method": "The serum VEGF levels in inh-KO mice were measured by using immunoassay kit (R & D Systems), and the levels of human VEGF and Ang-1 in cell line culture medium were quantified using ELISA kits purchased from Invitrogen (VEGF) and R & D Systems (Ang-1), by following the manufacturers' recommended protocols."}, "VEGF and Ang-1": {"test_system": "VEGF and Ang-1", "assay": "VEGF and Ang-1 immunostaining of inh-KO ovarian and testicular tumor sections", "format": "in vivo, mouse", "settings": "ovarian and testicular tumors, inh-KO mice", "method": "Zinc-formalin fixed paraffin tumor tissue sections of 4 μm in thickness were prepared. The sections were subjected to antigen retrieval by microwave 3 min in Unmask solution (Vector H-3300) followed by incubation in 10 μg/ml Proteinase-K for 20 min and in 1% H2O2 in dH2O for 10 min at room temperature. The sections were further incubated in 0.1% Tween-20 in PBS for 3 min to permeabilize the cell membrane and in goat serum for 30 min to block non-specific binding. The sections were then incubated at room temperature with specific primary antibody for 3 hours followed by incubation in biotinylated or fluorescently labeled secondary antibody. Substrate developed in Vector SG kit (SK-4700) or DAB and nuclear-counterstained in Vector Fast Red (H-3403) or in hematoxylin. The immunostained tissue sections were analyzed and photographed using a Nikon Eclipse 90i microscope equipped with DS-Ril camera. The primary antibodies used and their dilutions are as follows: VEGF (BD Pharmingen 550549) 1:20 or VEGF (Abcam ab46154) 1:100, active caspase-3 (Abcam ab32042) 1:50, Ang-1 (Abcam ab8451) 1:500, osteopontin (Abcam ab8448) 1:200, CD-31 (Abcam ab56299) 1:100, E-cadherin (Abcam ab76319) 1:80. For immunofluorescence staining, FITC-conjugated secondary antibody (Invitrogen) was added at 1:50 dilution in PBS and incubated for 30 min. Cell nuclei were counterstained with Vectashield PE (Vector)."}, "[2]": {"test_system": "endoglin, osteopontin, IGFBP-1, and IGFPB-2", "assay": "Western blot of endoglin, osteopontin, IGFBP-1, IGFBP-2 in inh-KO ovarian tumors", "format": "in vivo, mouse", "settings": "inh-KO mice", "method": "as §1"}, "TOV-21G xenografts": {"test_system": "TOV-21G xenografts", "assay": "TOV-21G xenograft, sActRIIB and 5-FU chemotherapy combination", "format": "in vivo, human", "settings": "nude mice; sActRIIB 10 mg/kg SC 1x/week, 5-FU 50 mg/kg IP 3 cycles, alone or together", "method": "TOV-21G xenograft. 5×10^6 TOV-21G ovarian cancer cells were implanted subcutaneously into individual female athymic nu/nu mice (Harlan). Treatment was initiated at day 12 after tumor implantation, when the average tumor volume reached approximately 150 mm^3. The mice received PBS, sActRIIB (30 mg/kg, SC, 1×/week) or activin-A antibody (30 mg/kg, SC, 2×/week). In a separate chemotherapy combination experiment, the mice were treated with PBS, sActRIIB (10 mg/kg, SC, 1×/week), 5-FU (50 mg/kg, IP, 3 cycles, 4 daily injections per cycle) or sActRIIB and 5-FU combination at the same doses above. For all xenograft experiments, the tumor sizes were measured longitudinally by using an electronic caliper. Immediately prior to the 1st dose, the tumor-bearing mice were randomized to ensure even distribution in tumor sizes across different groups. Tumor volumes (mm^3) were calculated as tumor length (mm)×tumor width (mm)×tumor height (mm). Tumor weights were determined by necropsy."}, "[3]": {"test_system": "VEGF, Ang-1, osteopontin, CD31 in TOV-21G tumors", "assay": "Immunostaining of angiogenesis factors and CD31 in TOV-21G xenograft tumor sections", "format": "in vivo, human", "settings": "treated vs untreated sections", "method": "TOV-21G xenograft. 5×10^6 TOV-21G ovarian cancer cells were implanted subcutaneously into individual female athymic nu/nu mice (Harlan). Treatment was initiated at day 12 after tumor implantation, when the average tumor volume reached approximately 150 mm^3. The mice received PBS, sActRIIB (30 mg/kg, SC, 1×/week) or activin-A antibody (30 mg/kg, SC, 2×/week). In a separate chemotherapy combination experiment, the mice were treated with PBS, sActRIIB (10 mg/kg, SC, 1×/week), 5-FU (50 mg/kg, IP, 3 cycles, 4 daily injections per cycle) or sActRIIB and 5-FU combination at the same doses above. Zinc-formalin fixed paraffin tumor tissue sections of 4 μm in thickness were prepared. The sections were subjected to antigen retrieval by microwave 3 min in Unmask solution (Vector H-3300) followed by incubation in 10 μg/ml Proteinase-K for 20 min and in 1% H2O2 in dH2O for 10 min at room temperature. The sections were further incubated in 0.1% Tween-20 in PBS for 3 min to permeabilize the cell membrane and in goat serum for 30 min to block non-specific binding. The sections were then incubated at room temperature with specific primary antibody for 3 hours followed by incubation in biotinylated or fluorescently labeled secondary antibody. […] The immunostained tissue sections were analyzed and photographed using a Nikon Eclipse 90i microscope equipped with DS-Ril camera. […]"}}, "data": [{"molecule": "sActRIIB: extracellular domain of human activin type-2B receptor fused to IgG2 Fc; full length SEQ ID NO: 21 (Table 9) (protein, listed as Homo sapiens) ETRWCIYYNANWELERTNQSGLERCEGEQDKRLHCYASWRNSSGTIELVKKGCWLDDFNCYDRQECVATEENPQVYFCCCEGNFCNERFTHLPEAGGPEVTYEPPPTAPTGGGGSVECPPCPAPPVAGPSVFLFPPKPKDTLMISRTPEVTCVVVDVSHEDPEVQFNWYVDGVEVHNAKTKPREEQFNSTFRVVSVLTVVHQDWLNGKEYKCKVSNKGLPAPIEKTISKTKGQPREPQVYTLPPSREEMTKNQVSLTCLVKGFYPSDIAVEWESNGQPENNYKTTPPMLDSDGSFFLYSKLTVDKSRWQQGNVFSCSVMHEALHNHYTQKSLSLSPGK", "values": [{"measurement": "testicular tumor mass", "setting": "[1]", "result": "dramatic regression of testicular tumor masses to the WT control levels"}, {"measurement": "E-cadherin immunoreactivity in ovarian sections", "setting": "E-cadherin", "result": "reappearance of distinctive E-cadherin immunoreactivity"}, {"measurement": "E-cadherin protein in ovarian tumors (Western blot)", "setting": "E-cadherin; single injection", "result": "dramatically restored the lost E-cadherin"}, {"measurement": "serum VEGF", "setting": "VEGF", "result": "rapidly lowered the elevated VEGF to WT control levels"}, {"measurement": "VEGF and Ang-1 immunoreactivities in tumor sections", "setting": "VEGF and Ang-1", "result": "completely abolished the VEGF and Ang-1 inductions in the tumors"}, {"measurement": "induction of endoglin, osteopontin, IGFBP-1 and IGFBP-2 proteins", "setting": "[2]", "result": "abolished completely"}, {"measurement": "rate of tumor growth", "setting": "TOV-21G xenografts", "result": "decreased the rate of tumor growth significantly"}, {"measurement": "CD31 immunostaining (newly formed microvessels)", "setting": "[3]", "result": "lack of such new microvessels"}, {"measurement": "VEGF and Ang-1 immunostaining in tumor sections", "setting": "[3]", "result": "virtually none in the sActRIIB-treated sections"}]}]}
